Substitutions are numbered along the chain they refer to.
B1: GBD008-S004 (antibody, V domains shown)
VH: EVQLVESGGGLVQAGGSLRLSCLASGRTFSSYDMGWFRQAPGKEREFVAAISWGGVNTYYADSVKGRFTISRDNAKNTVYLQMNSLKPEDTAVYYCARGSAPYSSSRSSAQETYAQWGQGTQVTVSS
notes: Heavy chain-only antibody (VHH-Fc), no light chain
B2: GBD008-hS004-5 (antibody, V domains shown)
VH: B1 VH with A14P, L23A, V79L, K87R, P88A, Q122L
notes: Humanized heavy chain-only antibody (VHH-Fc), no light chain
B3: GBD008-hS005-3 (antibody, V domains shown)
VH: EVQLVESGGGLVQPGGSLRLSCAASGRTASSNAMAWVRQAPGKEREFVSAISATGGLTAYADSVKGRFTISRDNSKNTLYLQMNSLRAEDTAVYYCAVGRERWYLRHTENEYDYWGQGTLVTVSS
notes: as for B2
B4: GBD008-hS005-3-2 (antibody, V domains shown)
VH: B3 VH with V37F
notes: as for B2
B5: GBD008-S019 (antibody, V domains shown)
VH: QVQLVESGGGLVQPGGSLTLSCAASGFTFSSYTMAWYRQAPGKEREVVAGISRSGGTTNYGDSVKGRFTISRDNAKNTVYLQMNSLKPEDTAVYYCRAVSDYWGQGTQVTVSS
notes: Heavy chain-only antibody (VHH-Fc), no light chain; also called GBD008-5019
B6: GBD008-hS019-4 (antibody, V domains shown)
VH: B5 VH with Q1E, V5L, T19R, A75S, V79L, K87R, P88A, Q108L
notes: as for B2

Legend:
[1] = target: T1, mouse CTLA4 (Acro Biosystem, Catlog #CT4-M52H5) (mouse, UniProt P09793 36-161); test: ELISA, plate coated with 1 ug/ml mouse CTLA4
T1 construct: Bought protein

recombinant human CTLA-4 = target: T2, recombinant human CTLA-4 (human, UniProt P16410 36-161, limits assumed); test: Octet (BLI), 1:1 binding model
T2 construct: also called CTLA4 antigen
T2 sequence (looked up): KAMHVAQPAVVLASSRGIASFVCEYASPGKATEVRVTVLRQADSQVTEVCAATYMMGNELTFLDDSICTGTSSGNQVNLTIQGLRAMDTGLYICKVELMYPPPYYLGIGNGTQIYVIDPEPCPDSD

Row | Binder | binding result [1] | Kd (recombinant human CTLA-4) [nM] | koff (recombinant human CTLA-4) [s⁻¹] | kon (recombinant human CTLA-4) [M⁻¹ s⁻¹]
1 | B1 | no binding | 28.9 | 0.00501 | 173000
2 | B2 | no binding | 27.9 | 0.00671 | 241000
3 | B3 | no binding | 0.524 | 9.91e-05 | 189000
4 | B4 | no binding | 0.53 | 0.000114 | 214000
5 | B5 | no binding | 0.165 | 4.35e-05 | 263000
6 | B6 | no binding | 0.236 | 7.13e-05 | 302000

Reference: patent EP4628505A1 (Genor Biopharma Co., Ltd., dated 2025)
